Key:
Conditions in all cases: remark: other sources report otherwise
[1] = target: MHC class I molecule A*0301; experiment: iTopia affinity assay (ED50), peptide titration on plate-bound MHC
[2] = target: MHC class I molecule B*0702; experiment: as above
[3] = target: MHC class I allele A*0201 monomer (human); experiment: iTopia, multiparametric iScore
[4] = target: MHC class I allele B*0702 monomer (human); experiment: iTopia, multiparametric iScore
[5] = target: MHC class I molecule HLA-A*0301 (iTopia plate-bound monomer); experiment: iTopia off-rate assay, 37 C; fit R^2 0.99
[6] = target: MHC class I molecule A*0301; experiment: iTopia iScore
[7] = target: MHC class I molecule A*0201; experiment: iTopia iScore
[8] = target: MHC class I molecule A*0101; experiment: iTopia iScore
[9] = target: MHC class I molecule B*0702; experiment: iTopia iScore
[10] = target: MHC class I molecule HLA-B*0702 (iTopia plate-bound monomer); experiment: iTopia off-rate assay, 37 C; fit R^2 0.09
[11] = target: MHC class I molecule HLA-A*0201 (iTopia plate-bound monomer); experiment: iTopia off-rate assay, 37 C; fit R^2 0.35
[12] = target: MHC class I allele A*0301; experiment: iTopia peptide binding assay
[13] = target: MHC class I allele A*0101; experiment: iTopia peptide binding assay
[14] = target: MHC class I allele A*0201; experiment: iTopia peptide binding assay
[15] = target: MHC class I allele B*0702; experiment: iTopia peptide binding assay

RLARLALVL (here or on the partner: biotin (bound via biotin to streptavidin-coated plates)) [5T4 9 mer peptide 9 (…)] was tested, and the EC50 [1] was 3000 nM and the EC50 [2] was 700 nM.

RLARLALVL (here or on the partner: biotinylated, bound to streptavidin-coated plate) [5T4 9-mer peptide 9] showed an iScore [3] of 1.21 and an iScore [4] of 0.515.

RLARLALVL (here or on the partner: biotin (bound to streptavidin-coated plate)) [5T4 9-mer peptide 9 …] was tested, and the t½ half life [5] was 0.3 h, the iScore [6] was 0.052 and the iScore [7] was 1.21. For the same binder, the iScore [8] was 0, the iScore [9] was 0.515 and the t½ half life [10] was 2 h. The t½ half life [11] was 15.9 h.

Binder RLARLALVL (here or on the partner: bound via biotin to streptavidin-coated plate) [5T4 9 mer peptide 9 …] has a % of positive control peptide binding [12] of 48%, a % of positive control peptide binding [13] of 2% and a % of positive control peptide binding [14] of 65%. For the same binder, the % of positive control peptide binding [15] was 84%.

From patent US20090280138A1
